Data as given in the domain aggregation screens of Martell et al. (2025).

Test: soluble fraction after stress (log2 fold change); higher = more stays soluble; pooled small domains, quantitative proteomics
Conditions: stress: 50 degC
Summary of the method: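 Quantitative proteomics served as the high-throughput read-out for pooled custom libraries of small protein domains. Each was stressed at 50°C. Aggregation propensity is expressed as the base-two log fold change in soluble protein after stress. A higher value means a larger share of the protein remains in solution.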

Row | Sequence | soluble fraction (log2)
1 | HMKYSELLLEIILQSKEHPTAEQIFIEAKKRNPKIVQATVYNNLKNLLAQGRVIRISNPGQPDRYDNT | -0.401
2 | HMKKPKTVLSEEQKEFIINQAQDGVSAYDIARILFPSVNVTNLSKEVIDVAEFIRDTDIKLLADSE | 0.0694
3 | HMQLHDTMKRVYEALDISEQKLAESLGLKLSTIINWQKNGISKIGINKLNQTFGLDMQWILTGQGEPFI | 0.116
4 | HMYIVVPDLSKKDINEVANILAAQSLRFQVIDSANFRSDFPKNAVISQKPLAGSEVKVNKKIYLQLNPS | -0.345
5 | HMATVIDVATTLGRPITDPDEQRQVLNWIGKTERIISARLGDLAALDRQILADVISEVVARRARN | -0.4
6 | HMSTNYVQVLRAALNGVSGRKLAQQYRVSRDTVAILLRQAKIQGWQRAEDLENITEEDLVALLSG | -0.373
7 | HMHHDDHNQQEEIKEKLLAMVADGERHHVTEVRQLDEDWDMVTKVMKELMDEEQLLMDGSYLILSA | -0.0951
8 | HMKDDLTWSEGLMPNVVGMGLRDAMFMLENSGLRVNYSGRGKVTRQSPQPGVRIKRGATVAIELRL | -0.395
9 | HMDQDLGFLINKYFELGKDYNTLVEIYEKIKEYIASIDKKMLEYTKNFTIEQLKKWLDDGTINNIILTLG | -0.142
10 | HMTDLNQIGERIKGLRDALGYSPEKMASILEQKVDDYLAYEEGTKDISLSVLQRIEKEFDIDLSTLLFGT | -0.148
11 | HMSMTLSVLDDVRGLSESRRKQLFHSFGSIKKLREQSKETLMSIPYLPEKVALELYDKLHEE | -0.218
12 | HMQGPDPYAVLGIDRHADERAIKRAYRKLISEHHPDRLGDLPEDMRKRAESRASEINAAYDRIKEARGF | 0.0487
13 | HMGPSSIVVYVSGAVKTPGVYTLAPGSRVDDAVRAAGGLSERAESAGTNLAAQLSDGEHVHVAAAGE | 0.228
14 | HMRSAKEYKAIREEIYRFIGAYITKHVYAPSNKEIAEAVGISGTTVHRHLIDMIDEGILETD | -2.56
15 | HMPQEMIEILATPNGWLRVRQGPGTNYPEITKVNSGEEFPLLEEKDSWFKIRIEEGQEGWISSQYAQKEE | -0.0402
16 | HMAATGPLTPREAEIARLAAGHLSNRQIAEQLVVSERTVENHLYRIFIKLAVTGRDDLAAALAATEQ | -0.689
17 | HMSLAISGRNQLHGIIEEVRSDGLLSQIYLRVGDQVLTAVITRDAVAELKLKRGDTAVAIMKSTEVMIARE | 0.147
18 | HMDENILKTRIEDLDLSVRTIKALTGASIRTVSGLARKKESDLLEISGLGDKGIQEIKRALGSLGITL | 0.0868
19 | HMRHTRQRQAVLDALVRSGQALSPQDLLGQAKSAVPSLNLSTVYRQIKGLQDAGQIVRVELPGQPPRFEM | -0.107
20 | HMEYMKQRLYDIIELFKRSFSPSFSEEEKKKLENVLQDDFLRKAYEQLSDEVFIEEKFREFDGY | -1.73
21 | HMEYYDDEELDRFRGVEADAYDEDAVNEFRDVLYTLQEIEVAGWLRSLQLRAINLPDELKDEAFLI | -1.64
22 | HMTTVRLNATVPPELALQRLDRVARELFPEYSRNRLQQWIRSGELLVNGSPSGVRDKVPLGAELAVAANLE | -0.416
23 | HMETVRLSVDAQGAYYWNEQRVDDSALPDLLREASGRKPQPDLHIRGDKAVRYERVAEAMAAAQRAGLKKI | 0.0588
24 | HMKEIGGGPASKFIYYLIKTKHPIEQGDLIGITHLPRRTVQSAIEDLKNQGFIIERNSLDDSRRKVYYPVK | 0.000762
25 | HMLTPQEIGSRLKLVRQGLQLKQQEVAEIIGTSQLKISKIEQGATVTTPDFLKLLAFYSQSVSLDILF | -0.564

Row | Sequence | soluble fraction (log2)
26 | HMGKKGPELNDNEKIIFNIISKENSMNLDDLKNRTELSNKQWDKAIKGLRSHELVNIEKIDDQLLIHL | 0.196
27 | HMGLIAPMPGQIRSVAVSVGDVVKKGQTLLTMEAMKMEIRIQALKDGRVTALHAAQGQTVEGEQILIEVE | -0.000533
28 | HMNKPLFVYPNPVHQGKINLSKATNFMVVDLLGQTVNKTNYGKDFSIDNLPNGVYFIKTTEGEIIKFMK | -0.696
29 | HMKEYPEVITTSRLNVRTGPGTGYQRLGTLDQNLRVLVLTRQQGWAQIRGMLNGETVIGWVNDYYLQAID | -0.319
30 | HMEQLIIQEELSGKRLDQLVSLLFPSLTRAHAQKLIKEGAVLVNEKPRKPAYAVMTGELLTVELPEPE | -0.0616
31 | HMVGDMLTQKDSEGLTAYLYQQGIISQREMLLLNGILKDRVLTGMEKGQRDSVRASMVQHLLAMLNMM | -0.848
32 | HMENVMLRNFAIQATEAGVIKLLEDQRTFVWGSNNKKFMTVPFDEHPYSAMAAFFKTDEGLEIYKSIEKKF | -1.71
33 | HMDVKPWERQEGESAKAFEAFTIYAGLGADRSLRAVAQQLGKSKTLMDRWSSTYSWVARAAEYDADLQRK | -0.575
34 | HMYLEARVKSTTPILSKPNELGKSLGKLYTNDFVALVSLHKNGLDSYYRTANGGYINAADVVIDRDV | -0.663
35 | HMTSDYEPSEKDEKAVIGIAFLRNTDVYDVDIDKAEAIKALKANNDIYQKFVKFFPFVKLPSLYDDFQ | -0.00582
36 | HMSKIVPVAYSQFLKDVKNGNVSQVEIRGNNIKGINNNGSSFSTYAPNDLSLIDKLEKSNVEIIVMPLE | -0.125
37 | HMTNQEFNAAFKPFLDYFPTTEMTKEKINIYYLALSDLSKEQLGSAFISMVKNRVYKNFPQVAEIRQYATN | -0.0953
38 | HMRKSLGEIVFDRMERAIKSGAYSPDERLPTELDLAAEFEVSRPVIRDALKRLRERGLIYSRQGAGSFVRA | -0.499
39 | HMGKGVDKIMKMADDYSYGKIAGKTVDVMTAKLFQAAYNKAPQKAKDKVDKMNEKQLYIFMMNLWKRF | -0.777
40 | HMSEFAYPISLNGKTKFNLALSLALTKEEIEKEVLANADVQKFLNGQTPKKLIVVPGKIVNVV | -0.322
41 | HMAGATDTVRNLLERQIREGELLPGQRLPTEPELAARLGVSRNSLREALQSLEDSGLIVKRHGIGTFVTE | 0.0848
42 | HMSADLVYLRKRLQDAIAQLPENMRTAYTLFQIANRSIREISELTGASESLVKVRIHRAKGKLQKQLEDLK | -1.33
43 | HMSSESIKTDKNVGVGSTLEELEKAYGSDYTLSGKMYRYYQDDNSKYMYFFILNDVVQYYGYGIDV | -1.53
44 | HMEKSSALRAKEAFMALYHDGKFKPGTKIPSESNMAELLGVSRETWRKALALLRGDGVLYSKHGSGTYLLE | 0.11
45 | HMEAYSAEAVRFRIKAMIESETVDDVMSDDKIVERLLADGVDIARRTVAKYREAMNIPSSVKRRRKLKGM | -1.53
46 | HMEKSQIHLIHTRYVNPEQLVPILSMVIPAENIYVKSDSNLIIINGSSEMLREVESIVSKLDVPS | 0.0228
47 | HMGTTLTKIPGIGENRARLLLRHFGSLRAVREADADALAAVKGMTRPAAEAIVRYFEQQDAEGRRD | 0.21
48 | HMRQGHLDLLRQIHALPPSTREVVYLRAFGGLSFREIGDVLGRTETWARVTFYRGKEALRKG | 0.0194
49 | HMEIYEEDRTKVVNDLMDQILNRQITMDAAATKFINIRNSLGTTITKEDEQNLEMLRGLIFDKT | 0.16
50 | HMRQNPESFLNHKVKKNESLESLTKKYELTENEIIFYNPLIQKIGLKKRMILKIPIYNNQNLVTKSVD | 0.256

Row | Sequence | soluble fraction (log2)
51 | HMPIDNTLLSRITSLGVSTTEAEKLISKHGEEALKANLEVVEERLSKPNLPLLDSPAAYLKTALKNG | 0.318
52 | HMLYDNQLPDWAGQMVKNHGLTISPKALVILVDHIGNDLSRIENEIEKLMLNLGTRKSITEDDVEN | -1.28
53 | HMDTHRLNYSDFVAEVQAQRVSKVVIDGYTIVGQRTNGETFETVRPALQDPKLVDDLLQNNVIIEGKQPE | 0.0106
54 | HMEIKDQADAYGKMEPASAAAILSEMTNDLTLVAKILDSMQTSKSALILQNMKPTTAAQVTTKMTAMK | 0.0219
55 | HMTNTDYPGKVVPVDPDGKTLKPDGDASYNDKPGTKVKTPTVPGYTAEVPNVEVPVGGGDIKVTYHKKPV | 0.372
56 | HMVLSVRERMGIVLEKVNTETFTDFKELFTVEEGRAGAIVSLLAILQLMKDSLIQLVQNEPNGPIYVKAA | -0.673
57 | HMRTMRHLSVPRQETQQILSQLKAEFALPQGARVQPDPSDSKRTLIPVKEGAESELLSRYPVVHAEP | 0.0847
58 | HMNTPNYDVLYRGLADADAGQIMEALQKSNIPFKVDSHSGVLLVPADQVHEARLKLASQGLPRG | 0.0262
59 | HMNDNFTPDDLNRLARIKDLPQAKKYALELISNKSAKPMKPEKVRWFANQLQKKKSVMDITKMMYDLLLA | -0.0441
60 | HMENFYGYEIINPEAKKFFITMGVNRYALEQWIKNKSEYGLIIVKSLYPFDPRLKLFLEKNRERIQNLIF | -0.566
61 | HMGMSQQKQSSTVRIIMQDISDANEGLMKMSQIIDAALAEGISETIVRNAISNLHRGGTIYESQTGTYQW | -0.359
62 | HMRDLVTYVVQVNGKLRGKLEVSPSTDDNSLKTMALELENVQRALEGLSVKKVIVIPGKMVSIAAG | 0.167
63 | HMIPDLPAVGVNVHKERRRQQLSLDALAAGSGVSKAMLSQIESGKVNPTVATMWKIAHALGVDFELLLKGE | -0.154
64 | HMLETLVYPNPTTDKILLSSPVDYHLFSLKGELVLEGRGSSIEVSQLSKGVYFLNTKTQTFKIIK | -0.383
65 | HMYNSYALTARELELVNYVLKGNSRREMAEDSGLKENTVASYMKRLYRKIKVHSRKELKELFM | -0.0805
66 | HMNDPNAPITENQLKAIHVLLDKLKVDDNLKHAYIADVLQLDNEPETLKTLTKAQGSMAIERMQLLKDN | 0.328
67 | HMDAVSTMIENLRVKTGKSLADWVGLAKGSGADKHGAMVGWLKSEHGLTHGYANLIAHETFRSAA | 0.0392
68 | HMNNFTQSALDTIDGIGKRRKKLLLNHFGSVKLIENASIEDIKKIDGISDLVANKIYNFFNKN | -0.652
69 | HMFIQLSQEEKKVVEGLQQRSKTHLDALALEVGQNISKTAAMLMELEMKGVVRALPGKYYEL | -0.888
70 | HMESAVDVFRSILKEKGVTEEEVRQVVAARGKYTLETPIDDYPNEFLYGYVIRYWDQIFDIIQQSREAK | -0.321
71 | HMKPLIIPLELMQRLSSDKQLEAGFNRFSKSKQHEFAAYIAAAKRVETKVKRLEKIIPLILSGEGLNDR | -1.36
72 | HMIDYIKYTVDGKTYELINNWDGTWSRELEAPLVAGRYDLLLEISQNGLVTYIDSSDPRYEFYLDVI | -3.12
73 | HMSTFKSYRGKITASSGVNIRTGAGTNYNKNGALTYNSVVTIVDEKKVSGTTWGKLADGRGWISLDYLKK | -0.554
74 | HMDLSYPFTTVTTDNVNMRRSASSSSVVLERIDKGDSITVLGTSGNYYKVSYNDRTGYVLKQYVDVSAATT | -0.173
75 | HMEVMYFIYQQEEPMRIDKFLVNEMEDFSRNSIQIYIKDNHVLVNDKVVKANYILKKGDAISITIPDPI | -0.404
